This is an account of results in paper PMC11148020, “PPIA dictates NRF2 stability to promote lung cancer progression” (Nature Communications, 2024).

This assay addresses T1, Recombinant PPIA protein (PPIA WT) (human, UniProt P62937 1-165, 15N-labeled in the NMR experiment).
T1 construct: peptidylprolyl isomerase A (PPIA, CypA), called full-length PPIA for the co-crystal; free in solution for crystal and NMR; also called full-length PPIA; 15N-labeled PPIA; source: E. coli BL21 (DE3), purified (Ni-NTA; for crystallization also Superdex 75 gel filtration)
Nature of the assay: crystal structure; PPIA (50 mg/mL) incubated with PBM peptide (2 mM) at 4 °C for 2 h; hanging-drop co-crystallization, 25 mM Hepes, 25% PEG 3350, 5 mM TCEP, pH 7.5; 1.81 Å. The following applies: both partners purified.

T1 sequence (P62937 whole entry): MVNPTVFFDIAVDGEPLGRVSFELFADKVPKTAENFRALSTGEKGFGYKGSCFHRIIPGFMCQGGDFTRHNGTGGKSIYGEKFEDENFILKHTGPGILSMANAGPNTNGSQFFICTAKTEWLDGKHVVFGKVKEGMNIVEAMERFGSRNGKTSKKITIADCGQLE

B1: NRF2 fragment PPIA-Binding Motif (PBM) peptide (peptide)
peptide: VAQVAPVD
notes: NRF2 residues 169-176, in the linker between the Neh4 and Neh5 domains; also called NRF2-PBM; source: synthetic peptide
Regarding B1, the binding result is reported as “binds”.
